Laboratory results published in publication PMC11844729 (Science Advances, 2025).

Biological target: T1, mN2G^SR (mini-nesprin-2G lacking the transmembrane KASH domain, with C-terminal sfGFP-6xHis) (mouse, UniProt Q6ZWQ0-1)
T1 chain: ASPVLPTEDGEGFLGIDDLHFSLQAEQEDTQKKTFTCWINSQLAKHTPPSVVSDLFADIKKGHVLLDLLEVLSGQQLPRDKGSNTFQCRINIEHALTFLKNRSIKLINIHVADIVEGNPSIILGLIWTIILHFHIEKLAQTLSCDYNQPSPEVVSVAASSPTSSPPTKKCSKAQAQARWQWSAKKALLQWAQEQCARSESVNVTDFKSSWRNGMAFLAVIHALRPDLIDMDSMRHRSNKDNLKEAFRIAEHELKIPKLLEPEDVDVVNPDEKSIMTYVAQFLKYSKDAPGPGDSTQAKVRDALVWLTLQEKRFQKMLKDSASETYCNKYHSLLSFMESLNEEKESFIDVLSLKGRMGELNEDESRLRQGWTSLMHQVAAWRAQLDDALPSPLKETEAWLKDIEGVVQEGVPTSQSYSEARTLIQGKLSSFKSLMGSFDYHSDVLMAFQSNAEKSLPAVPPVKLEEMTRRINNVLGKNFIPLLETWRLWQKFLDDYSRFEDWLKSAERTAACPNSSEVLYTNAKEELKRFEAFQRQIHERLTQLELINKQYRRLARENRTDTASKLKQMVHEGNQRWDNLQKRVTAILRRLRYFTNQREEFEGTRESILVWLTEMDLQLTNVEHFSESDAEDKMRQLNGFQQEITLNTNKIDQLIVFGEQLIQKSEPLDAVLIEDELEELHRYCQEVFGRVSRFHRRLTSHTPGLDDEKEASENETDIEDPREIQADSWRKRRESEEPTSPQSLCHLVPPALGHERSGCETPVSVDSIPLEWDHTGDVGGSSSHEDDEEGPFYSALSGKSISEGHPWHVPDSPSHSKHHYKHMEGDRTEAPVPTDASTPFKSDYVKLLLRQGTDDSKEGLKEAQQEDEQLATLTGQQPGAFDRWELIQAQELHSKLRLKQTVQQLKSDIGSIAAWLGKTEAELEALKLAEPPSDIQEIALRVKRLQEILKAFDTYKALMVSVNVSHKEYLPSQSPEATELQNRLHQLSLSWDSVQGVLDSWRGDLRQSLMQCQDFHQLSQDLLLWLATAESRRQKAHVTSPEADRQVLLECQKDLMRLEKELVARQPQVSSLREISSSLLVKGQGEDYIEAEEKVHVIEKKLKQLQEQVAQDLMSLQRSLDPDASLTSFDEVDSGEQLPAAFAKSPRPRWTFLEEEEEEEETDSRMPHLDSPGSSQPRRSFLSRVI
Assay: TIRF microscopy

B1: kinesin heterotetramer composed of the KIF5B KHC and KLC2 (K5B2) (complex)
chain 1: MADLAECNIKVMCRFRPLNESEVNRGDKYIAKFQGEDTVVIASKPYAFDRVFQSSTSQEQVYNDCAKKIVKDVLEGYNGTIFAYGQTSSGKTHTMEGKLHDPEGMGIIPRIVQDIFNYIYSMDENLEFHIKVSYFEIYLDKIRDLLDVSKTNLSVHEDKNRVPYVKGCTERFVCSPDEVMDTIDEGKSNRHVAVTNMNEHSSRSHSIFLINVKQENTQTEQKLSGKLYLVDLAGSEKVSKTGAEGAVLDEAKNINKSLSALGNVISALAEGSTYVPYRDSKMTRILQDSLGGNCRTTIVICCSPSSYNESETKSTLLFGQRAKTIKNTVCVNVELTAEQWKKKYEKEKEKNKILRNTIQWLENELNRWRNGETVPIDEQFDKEKANLEAFTVDKDITLTNDKPATAIGVIGNFTDAERRKCEEEIAKLYKQLDDKDEEINQQSQLVEKLKTQMLDQEELLASTRRDQDNMQAELNRLQAENDASKEEVKEVLQALEELAVNYDQKSQEVEDKTKEYELLSDELNQKSATLASIDAELQKLKEMTNHQKKRAAEMMASLLKDLAEIGIAVGNNDVKQPEGTGMIDEEFTVARLYISKMKSEVKTMVKRCKQLESTQTESNKKMEENEKELAACQLRISQHEAKIKSLTEYLQNVEQKKRQLEESVDALSEELVQLRAQEKVHEMEKEHLNKVQTANEVKQAVEQQIQSHRETHQKQISSLRDEVEAKAKLITDLQDQNQKMMLEQERLRVEHEKLKATDQEKSRKLHELTVMQDRREQARQDLKGLEETVAKELQTLHNLRKLFVQDLATRVKKSAEIDSDDTGGSAAQKQKISFLENNLEQLTKVHKQLVRDNADLRCELPKLEKRLRATAERVKALESALKEAKENASRDRKRYQQEVDRIKEAVRSKNMARRGHSAQIAKPIRPGQHPAASPTHPSAIRGGGAFVQNSQPVAVRGGGGKQV
chain 2: MAMMVFPREEKLSQDEIVLGTKAVIQGLETLRGEHRALLAPLVAPEAGEAEPGSQERCILLRRSLEAIELGLGEAQVILALSSHLGAVESEKQKLRAQVRRLVQENQWLREELAGTQQKLQRSEQAVAQLEEEKQHLLFMSQIRKLDEDASPNEEKGDVPKDTLDDLFPNEDEQSPAPSPGGGDVSGQHGGYEIPARLRTLHNLVIQYASQGRYEVAVPLCKQALEDLEKTSGHDHPDVATMLNILALVYRDQNKYKEAAHLLNDALAIREKTLGKDHPAVAATLNNLAVLYGKRGKYKEAEPLCKRALEIREKVLGKFHPDVAKQLSNLALLCQNQGKAEEVEYYYRRALEIYATRLGPDDPNVAKTKNNLASCYLKQGKYQDAETLYKEILTRAHEKEFGSVNGDNKPIWMHAEEREESKDKRRDSAPYGEYGSWYKACKVDSPTVNTTLRSLGALYRRQGKLEAAHTLEDCASRNRKQGLDPASQTKVVELLKDGSGRRGDRRSSRDMAGGAGPRSESDLEDVGPTAEWNGDGSGSLRRSGSFGKLRDALRRSSEMLVKKLQGGTPQEPPNPRMKRASSLNFLNKSVEEPTQPGGTGLSDSRTLSSSSMDLSRRSSLVG
fold recruitment to F-actin against mN2G^CH: > 115 fold
